Assay results reported in patent US20070219116A1 (TROPHOGEN, published 2007).

Columns and labels:
[1] = target: T1, human FSH receptor (human, UniProt P23945 18-695); experiment: cell-based or functional assay
T1 sequence: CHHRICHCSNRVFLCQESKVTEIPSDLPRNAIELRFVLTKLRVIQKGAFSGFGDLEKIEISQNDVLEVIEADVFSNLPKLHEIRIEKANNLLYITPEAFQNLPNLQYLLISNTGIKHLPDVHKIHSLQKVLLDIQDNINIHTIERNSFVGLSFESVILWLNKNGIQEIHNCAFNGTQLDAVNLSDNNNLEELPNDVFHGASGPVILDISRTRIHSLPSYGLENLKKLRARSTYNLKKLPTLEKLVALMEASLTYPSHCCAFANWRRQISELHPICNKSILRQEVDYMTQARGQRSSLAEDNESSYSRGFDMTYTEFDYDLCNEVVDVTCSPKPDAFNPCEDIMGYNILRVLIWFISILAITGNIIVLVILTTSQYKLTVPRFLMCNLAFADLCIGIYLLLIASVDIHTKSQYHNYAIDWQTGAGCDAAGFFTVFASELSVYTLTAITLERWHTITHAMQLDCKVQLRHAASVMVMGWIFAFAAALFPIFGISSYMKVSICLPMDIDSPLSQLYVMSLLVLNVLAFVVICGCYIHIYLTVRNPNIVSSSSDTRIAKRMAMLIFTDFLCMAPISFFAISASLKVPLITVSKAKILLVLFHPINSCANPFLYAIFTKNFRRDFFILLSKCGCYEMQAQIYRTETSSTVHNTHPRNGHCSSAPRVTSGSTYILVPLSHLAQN

[2] = target: T2, human LH receptor (human, UniProt P22888 27-699, limits assumed); experiment: not described; data not shown
T2 construct: the form used in the assay is not described; also called human luteinizing hormone (receptor)
T2 sequence (P22888 27-699 R124G/N312S limits assumed): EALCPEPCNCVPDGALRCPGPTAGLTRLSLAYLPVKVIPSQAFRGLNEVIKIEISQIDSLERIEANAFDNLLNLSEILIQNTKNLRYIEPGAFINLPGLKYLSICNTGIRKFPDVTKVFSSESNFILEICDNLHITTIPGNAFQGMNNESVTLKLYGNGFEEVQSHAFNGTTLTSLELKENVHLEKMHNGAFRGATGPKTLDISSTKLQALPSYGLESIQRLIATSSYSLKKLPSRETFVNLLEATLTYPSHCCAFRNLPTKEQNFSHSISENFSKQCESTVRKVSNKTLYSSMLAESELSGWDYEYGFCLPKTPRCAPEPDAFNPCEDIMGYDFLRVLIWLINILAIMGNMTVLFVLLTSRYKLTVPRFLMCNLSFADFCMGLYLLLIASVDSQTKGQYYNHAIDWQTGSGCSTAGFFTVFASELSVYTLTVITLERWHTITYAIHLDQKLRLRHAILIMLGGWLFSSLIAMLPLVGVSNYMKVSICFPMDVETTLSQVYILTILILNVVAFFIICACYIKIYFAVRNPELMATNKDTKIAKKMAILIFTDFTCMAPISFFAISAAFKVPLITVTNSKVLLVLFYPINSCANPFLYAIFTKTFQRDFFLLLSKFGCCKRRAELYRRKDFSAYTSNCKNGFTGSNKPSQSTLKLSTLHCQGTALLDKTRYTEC

[3] = target: T3, rat LH receptor (rat, UniProt P16235 27-700, limits assumed); experiment: not described; data not shown
T3 construct: the form used in the assay is not described; also called rat luteinizing hormone receptor
T3 sequence (P16235 27-700 limits assumed): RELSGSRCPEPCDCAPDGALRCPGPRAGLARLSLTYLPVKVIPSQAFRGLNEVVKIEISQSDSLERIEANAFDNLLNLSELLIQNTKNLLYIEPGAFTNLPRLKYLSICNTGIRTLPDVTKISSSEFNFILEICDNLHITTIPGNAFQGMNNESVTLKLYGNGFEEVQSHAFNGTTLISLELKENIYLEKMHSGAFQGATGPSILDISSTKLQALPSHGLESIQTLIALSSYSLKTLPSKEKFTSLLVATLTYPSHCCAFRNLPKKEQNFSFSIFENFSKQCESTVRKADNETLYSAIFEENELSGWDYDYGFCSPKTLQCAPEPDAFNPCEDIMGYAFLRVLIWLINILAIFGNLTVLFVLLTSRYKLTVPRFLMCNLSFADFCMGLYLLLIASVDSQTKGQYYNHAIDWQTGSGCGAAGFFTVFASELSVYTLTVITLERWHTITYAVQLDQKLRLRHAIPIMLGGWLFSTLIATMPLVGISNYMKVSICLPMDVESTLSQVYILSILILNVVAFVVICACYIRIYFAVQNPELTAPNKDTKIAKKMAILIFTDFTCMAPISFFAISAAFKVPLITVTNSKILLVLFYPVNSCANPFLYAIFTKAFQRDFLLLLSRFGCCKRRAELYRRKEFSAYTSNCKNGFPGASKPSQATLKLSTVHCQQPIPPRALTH

B1: FSH analog TR-4402: alpha(E14R + Q20R + G73R) + betaE4R (ligand)
chain 1: not shown
chain 2: NSCRLTNITIAIEKEECRFCISINTTWCAGYCYTRDLVYKDPARPKIQKTCTFKELVYETVRVPGCAHHADSLYTYPVATQCHCGKCDSDSTDCTVRGLGPSYCSFGEMKE
B1 was tested, and the “potency, total cAMP production in CHO-FSHR cells, compared to Follistim (wild type FSH)” value [1] was 30 fold, the “potency, total cAMP production in KGN-FSHR cells, compared to wild type FSH” value [1] was 30 fold and the binding result [2] was “no binding”. B1: binds [3].
